The values that follow are results of earlier work, collected in publication PMC10347550, “Cyclic Ruthenium-Peptide Conjugates as Integrin-Targeting Phototherapeutic Prodrugs for the Treatment of Brain Tumors” (Journal of the American Chemical Society, 2023).

The data set addresses fibrinogen (Homo sapiens) (UniProt P02671).

fibrinogen (Homo sapiens), sequence (P02671 36-866, chain 1 of 3): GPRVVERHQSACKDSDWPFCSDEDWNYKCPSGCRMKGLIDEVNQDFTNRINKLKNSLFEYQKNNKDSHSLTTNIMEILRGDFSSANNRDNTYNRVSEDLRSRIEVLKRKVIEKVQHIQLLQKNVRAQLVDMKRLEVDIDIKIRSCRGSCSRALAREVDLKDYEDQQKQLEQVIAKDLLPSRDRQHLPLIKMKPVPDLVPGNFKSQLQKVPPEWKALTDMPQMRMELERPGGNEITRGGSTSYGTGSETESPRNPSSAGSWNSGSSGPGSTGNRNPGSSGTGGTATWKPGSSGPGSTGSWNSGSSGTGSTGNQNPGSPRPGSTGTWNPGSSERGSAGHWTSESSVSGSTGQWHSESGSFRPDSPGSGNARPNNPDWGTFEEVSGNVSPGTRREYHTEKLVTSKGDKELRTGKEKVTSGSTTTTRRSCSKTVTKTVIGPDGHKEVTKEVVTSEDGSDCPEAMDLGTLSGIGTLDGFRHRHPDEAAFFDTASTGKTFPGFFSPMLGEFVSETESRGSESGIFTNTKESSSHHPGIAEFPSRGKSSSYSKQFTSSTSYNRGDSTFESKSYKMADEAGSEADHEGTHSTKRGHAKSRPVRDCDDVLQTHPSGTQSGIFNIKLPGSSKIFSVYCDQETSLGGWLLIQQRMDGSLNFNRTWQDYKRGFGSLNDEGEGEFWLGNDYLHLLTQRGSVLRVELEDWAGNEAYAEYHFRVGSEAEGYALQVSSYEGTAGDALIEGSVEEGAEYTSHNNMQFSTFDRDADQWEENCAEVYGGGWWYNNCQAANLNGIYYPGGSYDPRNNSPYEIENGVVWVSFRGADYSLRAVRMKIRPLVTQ
fibrinogen (Homo sapiens), sequence (P02675 45-491, chain 2 of 3, further chain): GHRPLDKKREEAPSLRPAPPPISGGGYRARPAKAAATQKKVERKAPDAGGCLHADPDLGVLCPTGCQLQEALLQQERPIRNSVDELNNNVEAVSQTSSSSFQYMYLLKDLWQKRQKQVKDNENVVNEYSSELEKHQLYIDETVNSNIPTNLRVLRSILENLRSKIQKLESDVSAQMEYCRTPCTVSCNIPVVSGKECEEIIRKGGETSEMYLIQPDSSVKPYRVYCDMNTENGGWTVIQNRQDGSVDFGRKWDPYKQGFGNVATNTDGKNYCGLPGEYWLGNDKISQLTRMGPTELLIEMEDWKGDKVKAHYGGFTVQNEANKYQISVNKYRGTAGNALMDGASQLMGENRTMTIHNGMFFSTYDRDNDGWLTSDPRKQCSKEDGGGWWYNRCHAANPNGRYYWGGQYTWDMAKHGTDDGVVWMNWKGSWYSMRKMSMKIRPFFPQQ
fibrinogen (Homo sapiens), sequence (P02679 27-453, chain 3 of 3, further chain): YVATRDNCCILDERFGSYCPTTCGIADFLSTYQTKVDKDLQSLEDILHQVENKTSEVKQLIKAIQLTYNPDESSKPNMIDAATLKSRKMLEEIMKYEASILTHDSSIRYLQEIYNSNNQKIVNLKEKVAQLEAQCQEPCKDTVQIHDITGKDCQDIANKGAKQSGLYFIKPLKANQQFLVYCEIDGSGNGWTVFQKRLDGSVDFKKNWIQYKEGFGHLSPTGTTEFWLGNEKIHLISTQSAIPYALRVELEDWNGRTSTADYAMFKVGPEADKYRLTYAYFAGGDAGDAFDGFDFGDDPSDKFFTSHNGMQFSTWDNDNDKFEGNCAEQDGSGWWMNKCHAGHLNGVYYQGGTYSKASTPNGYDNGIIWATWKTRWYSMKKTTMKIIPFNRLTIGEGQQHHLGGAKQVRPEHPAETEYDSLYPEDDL

For integrin αIIbβ3 (from UniProt P08514), the dissociation constant Kd is 30 nM.
